Results on 52 molecules are retold here after patent US20250011363A1, “OPTIMIZED SHORTENED PEPTIDE THAT BINDS TO ACETYLCHOLINE RECEPTOR, AND USE THEREOF” (SKINMED CO., LTD., priority 2021, published 2025).

The test addresses acetylcholine receptor. The test is described as follows: SPR, AchR immobilised on chip, peptide at 10 uM. (SPR reads the build-up and loss of mass on a sensor chip optically.)

In the case of KRISK [5mer-251], the Binding affinity (RU) is 70 RU.
Same read-out and setting: to KRLLK [5mer-267] belongs 66 RU.
Turning to KVILRR [6mer-2-334], the Binding affinity came to 146 RU.
As to RVYTKR [6mer-2-329], the Binding affinity was 142 RU.
Consider RGVCK [5mer-256], for which the Binding affinity (RU) worked out at 60 RU.
Consider RSLYR [5mer-253], for which the Binding affinity (RU) worked out at 75 RU.
In turn, KRFRRK [6mer-2-333] displayed a Binding affinity of 139 RU.
Consider RWQCR [5mer-265], for which the Binding affinity (RU) was determined as 77 RU.
On to KQLRKK [6mer-2-330], for which the Binding affinity came to 139 RU.
Turning to RLYSR [5mer-552], the Binding affinity (RU) worked out at 63 RU.
With RQFTR [5mer-257], the Binding affinity (RU) amounted to 85 RU.
RLVSK [5mer-565] displayed a Binding affinity (RU) of 77 RU.
For RLVLK [5mer-563], the Binding affinity (RU) amounted to 60 RU.
KVQCK [5mer-555] displayed a Binding affinity (RU) of 71 RU.
In the case of RVRQR [5mer-562], the Binding affinity (RU) was 70 RU.
In the case of RGFYKK [6mer-2-326], the Binding affinity is 142 RU.
RRVLR [5mer-261] yielded a Binding affinity (RU) of 59 RU.
In the case of KLVSRK [6mer-2-321], the Binding affinity was found to be 139 RU.
Take RSYCR [5mer-249]: the Binding affinity (RU) came out at 52 RU.
For KQRTR [5mer-255], the Binding affinity (RU) is 82 RU.
The same measure, in the same setting: the figure for KLLSR [5mer-553] is 72 RU.
Same read-out and setting: to RSRYR [5mer-564] belongs 74 RU; to KLLRK [5mer-254], 87 RU.
For the molecule RLIRK [5mer-259], the Binding affinity (RU) is 71 RU.
Still for that read-out and setting: the figure for RVIYK [5mer-556] is 52 RU.
Consider RRYSRR [6mer-2-322], for which the Binding affinity amounted to 148 RU.
For RQFSR [5mer-250], the Binding affinity (RU) came out at 76 RU.
As for KRYQRK [6mer-2-328], the Binding affinity stood at 131 RU.
In the case of KSRCR [5mer-262], the Binding affinity (RU) amounted to 59 RU.
Same read-out and setting: the figure for RWQYR [5mer-551] is 59 RU.
Turning to RVFSRK [6mer-2-325], the Binding affinity turned out to be 142 RU.
With KQVTR [5mer-263], the Binding affinity (RU) is 80 RU.
Still for that read-out and setting: to RWRYK [5mer-558] belongs 84 RU; to KQYRK [5mer-252], 53 RU.
Regarding RRQYKK [6mer-2-332], the Binding affinity amounted to 145 RU.
In the case of KWYQR [5mer-560], the Binding affinity (RU) was 59 RU.
KWRCK [5mer-561] gave a Binding affinity (RU) of 72 RU.
In the case of RQYRRK [6mer-2-320], the Binding affinity turned out to be 148 RU.
As to KVYRR [5mer-260], the Binding affinity (RU) was found to be 57 RU.
Take KGLRKR [6mer-2-327]: the Binding affinity was determined as 153 RU.
KQQLK [5mer-559]: the Binding affinity (RU) worked out at 81 RU.
The same measure, in the same setting: to KQRRK [5mer-557] belongs 87 RU; to KQLYK [5mer-566], 78 RU; to KRQYK [5mer-258], 84 RU.
Same read-out and setting: the figure for KSYQK [5mer-266] is 66 RU; for KWYRK [5mer-264] it is 50 RU; for RLLSK [5mer-554] it is 65 RU.
RQQSR [5mer-550] yielded a Binding affinity (RU) of 83 RU.
With KWITK [5mer-549], the SPR binding response came out at 78 RU.
In the case of RWVSKK [6mer-2-331], the Binding affinity was 148 RU.
KVLLRK [6mer-2-323] showed a Binding affinity of 145 RU.
Same read-out and setting: to KLQSRK [6mer-2-324] belongs 139 RU.
